# Patent US11434503
# System: piggyBac transposase wild type (Trichoplusia ni)
# Assay: cell_activity
# Settings: yeast excision assay; reference
# Chain of piggyBac transposase wild type (Trichoplusia ni) (chain, as listed by the source): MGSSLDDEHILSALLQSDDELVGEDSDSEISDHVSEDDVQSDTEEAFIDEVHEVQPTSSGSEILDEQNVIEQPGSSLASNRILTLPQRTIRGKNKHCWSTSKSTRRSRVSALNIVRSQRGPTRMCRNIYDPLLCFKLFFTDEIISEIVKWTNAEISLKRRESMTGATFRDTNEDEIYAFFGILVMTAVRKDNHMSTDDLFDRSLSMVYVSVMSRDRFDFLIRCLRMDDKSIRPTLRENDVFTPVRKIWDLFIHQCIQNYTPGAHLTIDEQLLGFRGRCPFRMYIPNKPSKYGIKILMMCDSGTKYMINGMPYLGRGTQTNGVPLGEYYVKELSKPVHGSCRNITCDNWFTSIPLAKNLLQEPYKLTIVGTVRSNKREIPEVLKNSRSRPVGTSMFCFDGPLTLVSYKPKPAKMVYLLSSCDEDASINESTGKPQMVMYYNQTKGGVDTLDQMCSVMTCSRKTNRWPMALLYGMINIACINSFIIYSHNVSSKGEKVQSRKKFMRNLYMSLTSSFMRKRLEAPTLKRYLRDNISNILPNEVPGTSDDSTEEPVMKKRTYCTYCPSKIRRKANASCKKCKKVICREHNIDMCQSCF
substance,measurement,value
piggyBac transposon ura- to ura+ excision cassette in yeast,activity (fold (normalized)),1
